Each block holds one binder with its values, some of them ahead of it.
Legend:
human gp130-his [1] = target: T1, human gp130-his (human, UniProt P40189 23-619); assay: ELISA; receptor competitive ELISA: wells coated with LIFR-his or gp130-his (100 ng/well); hLIF-hFc (50 ng) pre-mixed with recombinant antibody at 4 C for 1 h, then 37 C for 1 h on the plate; detected with HRP goat anti-human IgG; conditions: both partners purified
T1 construct: gp130 (interleukin-6 receptor subunit beta), human; source: bought: Sino Biological
T1 sequence (looked up): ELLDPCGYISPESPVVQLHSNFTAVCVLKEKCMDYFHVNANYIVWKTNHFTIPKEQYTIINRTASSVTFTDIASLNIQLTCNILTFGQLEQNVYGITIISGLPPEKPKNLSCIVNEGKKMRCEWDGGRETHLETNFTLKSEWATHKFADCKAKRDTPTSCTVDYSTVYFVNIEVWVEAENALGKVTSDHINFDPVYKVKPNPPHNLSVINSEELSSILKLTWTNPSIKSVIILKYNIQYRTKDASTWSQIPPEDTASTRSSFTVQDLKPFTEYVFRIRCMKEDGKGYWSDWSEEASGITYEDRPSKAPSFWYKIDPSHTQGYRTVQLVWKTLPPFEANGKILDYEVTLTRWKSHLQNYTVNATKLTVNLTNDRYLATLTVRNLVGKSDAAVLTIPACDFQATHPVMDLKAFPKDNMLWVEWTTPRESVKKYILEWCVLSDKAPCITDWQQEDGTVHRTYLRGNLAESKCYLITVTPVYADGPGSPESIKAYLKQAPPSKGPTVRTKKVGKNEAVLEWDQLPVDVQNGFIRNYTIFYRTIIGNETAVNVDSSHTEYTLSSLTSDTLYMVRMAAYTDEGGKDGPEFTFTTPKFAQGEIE

human gp130-his [2] = target: T1, human gp130-his; assay: SPR; Biacore 8K, CM5 chip with anti-mouse IgG, 1G11 captured; 200 nM hLIF flowed, followed by 500 nM LIFR-his or gp130-his; 25 C, pH 7.4, 10 mM HEPES, 150 mM NaCl, 3 mM EDTA, 0.05% Tween-20; conditions: both partners purified

binding result (human gp130-his [1]): binds
B1: human LIF with human IgG1-Fc tag (Fc fusion)
chain: not shown
notes: also called hLIF-hFc; LIF-hFc

binding result (human gp130-his [2]): binds
B2: human LIF (ligand)
chain: not shown
notes: also called hLIF; source: bought: Genscript

Source: publication PMC11340043, “Antagonist anti-LIF antibody derived from naive human scFv phage library inhibited tumor growth in mice” (BMC Immunology, 2024)
